Data reported in US20260265359A1 (Hoffmann-La Roche, published 2026).
Read-outs that look alike come from different tables or passages of the source.

T1: human IL-6R overexpressed on engineered CHO-S cells (human, UniProt P08887 20-468)
T1 construct: whole, on cells; also called IL-6R-expressing CHO-S cells
T1 sequence (looked up): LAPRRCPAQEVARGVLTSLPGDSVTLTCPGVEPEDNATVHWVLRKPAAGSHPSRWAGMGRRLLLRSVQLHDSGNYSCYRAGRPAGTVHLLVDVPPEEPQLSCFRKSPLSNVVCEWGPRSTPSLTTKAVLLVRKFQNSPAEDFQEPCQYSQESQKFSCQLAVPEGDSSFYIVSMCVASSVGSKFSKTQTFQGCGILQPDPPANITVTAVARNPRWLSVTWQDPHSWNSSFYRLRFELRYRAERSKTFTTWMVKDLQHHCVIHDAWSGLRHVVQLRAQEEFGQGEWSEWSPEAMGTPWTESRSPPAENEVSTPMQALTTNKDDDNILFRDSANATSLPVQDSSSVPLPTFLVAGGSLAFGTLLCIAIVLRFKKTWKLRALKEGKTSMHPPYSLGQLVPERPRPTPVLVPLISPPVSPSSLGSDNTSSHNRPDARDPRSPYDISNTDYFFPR

T2: recombinant human IL-6R (human, UniProt P08887 20-365, limits assumed)
T2 construct: Recombinant protein used in ELISA and as SPR analyte; also called hIL-6R
T2 sequence (looked up): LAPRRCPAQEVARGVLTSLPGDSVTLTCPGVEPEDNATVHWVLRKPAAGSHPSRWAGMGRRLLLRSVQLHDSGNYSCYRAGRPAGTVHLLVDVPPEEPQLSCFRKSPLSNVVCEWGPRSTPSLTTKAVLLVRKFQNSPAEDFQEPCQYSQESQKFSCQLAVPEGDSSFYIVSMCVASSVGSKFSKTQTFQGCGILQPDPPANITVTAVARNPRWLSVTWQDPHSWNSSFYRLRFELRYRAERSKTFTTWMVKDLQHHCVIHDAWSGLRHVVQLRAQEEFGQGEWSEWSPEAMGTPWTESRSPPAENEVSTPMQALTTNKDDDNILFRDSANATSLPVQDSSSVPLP

T3: human Ang-1-Fc (human, UniProt Q15389 20-498, limits assumed)
T3 construct: not shown: Fc part
T3 sequence (looked up): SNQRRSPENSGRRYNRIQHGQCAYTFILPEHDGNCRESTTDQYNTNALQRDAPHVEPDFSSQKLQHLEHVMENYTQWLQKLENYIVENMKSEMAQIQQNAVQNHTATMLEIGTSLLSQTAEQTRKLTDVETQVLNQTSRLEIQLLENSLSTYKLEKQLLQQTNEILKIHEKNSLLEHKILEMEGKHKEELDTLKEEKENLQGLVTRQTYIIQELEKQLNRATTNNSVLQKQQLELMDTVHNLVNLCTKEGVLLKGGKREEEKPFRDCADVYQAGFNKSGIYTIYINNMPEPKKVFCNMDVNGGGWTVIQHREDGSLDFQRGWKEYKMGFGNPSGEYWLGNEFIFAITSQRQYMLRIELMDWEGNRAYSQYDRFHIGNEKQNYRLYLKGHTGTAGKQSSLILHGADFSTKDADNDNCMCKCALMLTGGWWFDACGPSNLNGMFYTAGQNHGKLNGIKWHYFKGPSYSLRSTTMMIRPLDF


How the values were obtained:
[1] = molecular target: T1, human IL-6R overexpressed on engineered …; assay: FACS competition: antibody with biotinylated human IL-6 and CHO-S cells overexpressing human IL-6R; blocked: IL-6 binding to IL-6R
Text: (§1) Vobarilizumab is a single domain antibody (also termed nanobody) against human IL-6R.

recombinant human IL-6R [2] = molecular target: T2, recombinant human IL-6R; assay: ELISA on plate-coated recombinant human IL-6R; anti-human IgG1-Fc-HRP, OD450
Procedure: (§2) After non-specific blocking using 1% BSA at 25° C. for 1 hour, a series of dilutions of test antibodies (“Abs”) were added into the coated wells and incubated at 25° C. for 1 hour. The bound Abs were detected using a secondary Ab (goat anti-human IgG1-Fc) conjugated with HRP followed by OD₄₅₀ reading.
(§3) The same ELISA procedure was performed with recombinant human IL-6R. […] Vobarilizumab is a single domain antibody against IL-6R. B781402 and B781405 are bispecific fusion antibodies that inhibit VEGF-A, B, PIGF and IL-6R.

recombinant human IL-6R [3] = molecular target: T2, recombinant human IL-6R; assay: SPR Biacore, 25 C; test antibody captured by anti-human IgG (Fc) on CM5 chip, target protein as analyte; 1:1 model
Procedure: (§4) SPR Biacore assay was performed at 25° C. with HBS-EP+ as a running buffer. The assay was performed by immobilization of the anti-human IgG (Fc) antibody onto the CM5 sensor chip surface and determined the level of ligand immobilization. […] Test antibodies were injected over the surface of Series S Sensor Chip CM5 as Capture. The analytes (target proteins) were diluted with running buffer into different concentrations and injected over the sensor surface as the association phase for affinity and kinetics measurements. The 1:1 binding model was used to measure the binding affinity and/or kinetics.

recombinant human IL-6R [4] = molecular target: T2, recombinant human IL-6R; assay: as above; remark: listed apart in the source
Procedure: as §4

[5] = molecular target: T1, human IL-6R overexpressed on engineered …; assay: FACS competition: antibody with biotinylated human IL-6 and CHO-S cells overexpressing human IL-6R; blocked: IL-6 binding to IL-6R; remark: listed apart in the source
Text: as §1

recombinant human IL-6R [6] = molecular target: T2, recombinant human IL-6R; assay: ELISA on plate-coated recombinant human IL-6R; anti-human IgG1-Fc-HRP, OD450; remark: listed apart in the source
Procedure: as §2, §3

human Ang-1-Fc [7] = molecular target: T3, human Ang-1-Fc; assay: FACS competition: soluble human Tie-2 ECD (positive control) pre-incubated with 2 µg/ml human Ang-1-Fc, then HEK-293 cells overexpressing human Tie-2; blocked: Ang-1-Fc binding to cell-bound Tie-2
human Ang-1-Fc [8] = molecular target: T3, human Ang-1-Fc; assay: FACS competition: soluble recombinant hTie-2 (positive control) pre-incubated with 2 µg/ml human Ang-1-Fc, then HEK-293 cells overexpressing human Tie-2; blocked: Ang-1-Fc binding to cell-bound Tie-2

Binder | IC50 [1] [nM] | EC50 (recombinant human IL-6R [2]) [nM] | Kd (recombinant human IL-6R [3]) [nM] | koff (recombinant human IL-6R [3]) [s⁻¹] | kon (recombinant human IL-6R [3]) [M⁻¹ s⁻¹] | Kd (recombinant human IL-6R [4]) [nM] | koff (recombinant human IL-6R [4]) [s⁻¹] | kon (recombinant human IL-6R [4]) [M⁻¹ s⁻¹] | IC50 [5] [nM] | EC50 (recombinant human IL-6R [6]) [nM] | IC50 (human Ang-1-Fc [7]) [nM] | IC50 (human Ang-1-Fc [8]) [nM]
Tocilizumab (antibody, V domains shown, mAb against human IL-6R used as comparator) VH: QVQLQESGPGLVRPSQTLSLTCTVSGYSITSDHAWSWVRQPPGRGLEWIGYISYSGITTYNPSLKSRVTMLRDTSKNQFSLRLSSVTAADTAVYYCARSLARTTAMDYWGQGSLVTVSS VL: DIQMTQSPSSLSASVGDRVTITCRASQDISSYLNWYQQKPGKAPKLLIYYTSRLHSGVPSRFSGSGSGTDFTFTISSLQPEDIATYYCQQGNTLPYTFGQGTKVEIKR | 1.82 | 0.028 | 1.4 | 0.000521 | 373000 | 1.1 | 0.00046 | 420000 | 0.756 | 0.05 | – | –
hTie2 (receptor, also called human Tie-2 ECD; recombinant hTie-2) AMDLILINSLPLVSDAETSLTCIASGWRPHEPITIGRDFEALMNQHQDPLEVTQDVTREWAKKVVWKREKASKINGAYFCEGRVRGEAIRIRTMKMRQQASFLPATLTMTVDKGDNVNISFKKVLIKEEDAVIYKNGSFIHSVPRHEVPDILEVHLPHAQPQDAGVYSARYIGGNLFTSAFTRLIVRRCEAQKWGPECNHLCTACMNNGVCHEDTGECICPPGFMGRTCEKACELHTFGRTCKERCSGQEGCKSYVFCLPDPYGCSCATGWKGLQCNEACHPGFYGPDCKLRCSCNNGEMCDRFQGCLCSPGWQGLQCEREGIQRMTPKIVDLPDHIEVNSGKFNPICKASGWPLPTNEEMTLVKPDGTVLHPKDFNHTDHFSVAIFTIHRILPPDSGVWVCSVNTVAGMVEKPFNISVKVLPKPLNAPNVIDTGHNFAVINISSEPYFGDGPIKSKKLLYKPVNHYEAWQHIQVTNEIVTLNYLEPRTEYELCVQLVRRGEGGEGHPGPVRRFTTASIGLPPPRGLNLLPKSQTTLNLTWQPIFPSSEDDFYVEVERRSVQKSDQQNIKVPGNLTSVLLNNLHPREQYVVRARVNTKAQGEWSEDLTAWTLSDILPPQPENIKISNITHSSAVISWTILDGYSISSITIRYKVQGKNEDQHVDVKIKNATITQYQLKGLEPETAYQVDIFAENNIGSSNPAFSHELVTLPESQAPADLGGGKMLL | – | – | – | – | – | – | – | – | – | – | 42.9 | 53
Vobarilizumab (VHH) VHH 1: EVQLVESGGGLVQPGGSLRLSCAASGSVFKINVMAWYRQAPGKGRELVAGIISGGSTSYADSVKGRFTISRDNAKNTLYLQMNSLRPEDTAVYYCAFITTESDYDLGRRYWGQGTLVTVSS VHH 2: QIILTQSPAIMSASLGEEITLTCSATSSVTYVHWYQQKSGTSPKLLIYGTSNLASGVPSRFSGSGSGTFYSLTVSSVEAEDAADYYCHQWNSYPHTFGGGTKLEIK | – | 1.36 | – | – | – | – | – | – | – | 1.39 | – | –
